Measurements as given in US20220089647A1 (FUJIFILM, published 2022).
Starred links: 1 amine or outer side, 2 acyl side, 3 side chain; linkers in the order of their positions; H or OH if unused. Positions of bridges follow the written chain, without caps; N, C: chain ends. Non-standard residues stand in square brackets, D forms with d. Primed or numbered codes have the meaning given here. No end group written: not given here. Dab(acetyl)″ = 2-amino-4-(acetylamino)butanoic acid, acetyl CH3 carbon bonded to the S of Hcy (S-CH2-C(=O)-NH-), O=C(C[*:3])NCC[C@H](N[*:1])C(=O)[*:2]; Dab(acetyl) = 2-amino-4-acetylamino-butanoic acid residue (N-γ-acetyl-diaminobutyric acid), CC(=O)NCC[C@H](N[*:1])C(=O)[*:2]; Dap(acetyl) = 2-amino-3-acetylamino-propanoic acid residue, CC(=O)NC[C@H](N[*:1])C(=O)[*:2]; Orn(acetyl) = N-δ-acetyl-ornithine residue, CC(=O)NCCC[C@H](N[*:1])C(=O)[*:2]; COCH2 = acetyl group that carries the bridge; hCys = N[C@@H](CCS)C(=O)O; Dab = NCC[C@H](N)C(=O)O

B1: Cyclic peptide 129 (peptide)
peptide: KKKGXIPRGDTFRXA
modifications: not fully specified; KKKG-(Pen)-IPRGDTFR(Dab(acetyl))A; thioether bond Pen-Dab(acetyl)
B2: Cyclic peptide 12 (peptide)
peptide: KKKXIPRGDNFRX
modifications: not fully specified; KKK(Dap(acetyl))IPRGDNFR-(Hcy); thioether bond Dap(acetyl)-Hcy
B3: Cyclic peptide 135 (peptide)
peptide: KKKGXIPRGDTFRXA
modifications: not fully specified; KKKG(Lys(acetyl))IPRGDTFR-(Pen)-A; thioether bond Lys(acetyl)-Pen
B4: Cyclic peptide 138 (peptide)
peptide: KKKGXIPRGDTFRCA
modifications: not fully specified; KKKG(Dab(acetyl))IPRGDTFR(C)A; thioether bond Dab(acetyl)-Cys
B5: Cyclic peptide 131 (peptide)
peptide: KKKGXIPRGDTFRXA
modifications: not fully specified; KKKG-(Pen)-IPRGDTFR(Lys(acetyl))A; thioether bond Pen-Lys(acetyl)
B6: Cyclic peptide 133 (peptide)
peptide: KKKGXIPRGDTFRXA
modifications: not fully specified; KKKG(Dab(acetyl))IPRGDTFR-(Pen)-A; thioether bond Dab(acetyl)-Pen
B7: Cyclic peptide 80 (peptide)
peptide: KKKAXIPRGDTPRXA
modifications: not fully specified; KKKA-(Hcy)-IPRGDTPR(Dab(acetyl))A; thioether bond Hcy-Dab(acetyl)
B8: Cyclic peptide 79 (peptide)
peptide: KKKAXIPRGDAFRXA
modifications: not fully specified; KKKA-(Hcy)-IPRGDAFR(Dab(acetyl))A; thioether bond Hcy-Dab(acetyl)
B9: Cyclic peptide 82 (peptide)
peptide: KKKAXIPRGDTFTXA
modifications: not fully specified; KKKA-(Hcy)-IPRGDTFT(Dab(acetyl))A; thioether bond Hcy-Dab(acetyl)
B10: Cyclic peptide 81 (peptide)
peptide: KKKAXIPRGDTYRXA
modifications: not fully specified; KKKA-(Hcy)-IPRGDTYR(Dab(acetyl))A; thioether bond Hcy-Dab(acetyl)
B11: Cyclic peptide 124 (peptide)
peptide: KKKAXIPRGDSFAXA
modifications: not fully specified; KKKA(Dab(acetyl))IPRGDSFA-(Hcy)-A; thioether bond Dab(acetyl)-Hcy
B12: Cyclic peptide 72 (peptide)
peptide: KKKGXIPRGDSFRXA
modifications: not fully specified; KKKG-(Hcy)-IPRGDSFR(Dab(acetyl))A; thioether bond Hcy-Dab(acetyl)
B13: Cyclic peptide 137 (peptide)
peptide: KKKAXIPRGDSFAXA
modifications: not fully specified; KKKA(Dab(acetyl))IPRGDSFA-(Pen)-A; thioether bond Dab(acetyl)-Pen
B14: Cyclic peptide 76 (peptide)
peptide: KKKAXITRGDTFRXA
modifications: not fully specified; KKKA-(Hcy)-ITRGDTFR(Dab(acetyl))A; thioether bond Hcy-Dab(acetyl)
B15: Cyclic peptide 132 (peptide)
peptide: KKKGXIPRGDTFRXA
modifications: not fully specified; KKKG(Dap(acetyl))IPRGDTFR-(Pen)-A; thioether bond Dap(acetyl)-Pen
B16: Cyclic peptide 130 (peptide)
peptide: KKKGXIPRGDTFRXA
modifications: not fully specified; KKKG-(Pen)-IPRGDTFR(Orn(acetyl))A; thioether bond Pen-Orn(acetyl)
B17: Cyclic peptide 134 (peptide)
peptide: KKKGXIPRGDTFRXA
modifications: not fully specified; KKKG(Orn(acetyl))IPRGDTFR-(Pen)-A; thioether bond Orn(acetyl)-Pen
B18: Cyclic peptide 7 (peptide)
peptide: KKKGXIPRGDNFRX
modifications: not fully specified; KKKG-(Hcy)-IPRGDNFR(Dab(acetyl)); thioether bond Hcy-Dab(acetyl)
B19: Cyclic peptide 68 (peptide)
peptide: KKKGXXPRGDTFRXA
modifications: not fully specified; KKKG-(Hcy)-(HmY)-PRGDTFR(Dab(acetyl))A; HmY = homotyrosine; thioether bond Hcy-Dab(acetyl)

molecular target: T1, human integrin αvβ5 (human, UniProt P06756 31-992; P18084 24-719, limits assumed); assay: SPR, Biacore 3000, peptide immobilised; B = KD more than 50 nM and 100 nM or less
T1 construct: Heterodimer flowed as analyte at 30, 100, 300 and 1,000 nM in HEPES buffer with 5 mM MgCl2
T1 sequence (P06756 31-992 limits assumed, chain 1 of 2): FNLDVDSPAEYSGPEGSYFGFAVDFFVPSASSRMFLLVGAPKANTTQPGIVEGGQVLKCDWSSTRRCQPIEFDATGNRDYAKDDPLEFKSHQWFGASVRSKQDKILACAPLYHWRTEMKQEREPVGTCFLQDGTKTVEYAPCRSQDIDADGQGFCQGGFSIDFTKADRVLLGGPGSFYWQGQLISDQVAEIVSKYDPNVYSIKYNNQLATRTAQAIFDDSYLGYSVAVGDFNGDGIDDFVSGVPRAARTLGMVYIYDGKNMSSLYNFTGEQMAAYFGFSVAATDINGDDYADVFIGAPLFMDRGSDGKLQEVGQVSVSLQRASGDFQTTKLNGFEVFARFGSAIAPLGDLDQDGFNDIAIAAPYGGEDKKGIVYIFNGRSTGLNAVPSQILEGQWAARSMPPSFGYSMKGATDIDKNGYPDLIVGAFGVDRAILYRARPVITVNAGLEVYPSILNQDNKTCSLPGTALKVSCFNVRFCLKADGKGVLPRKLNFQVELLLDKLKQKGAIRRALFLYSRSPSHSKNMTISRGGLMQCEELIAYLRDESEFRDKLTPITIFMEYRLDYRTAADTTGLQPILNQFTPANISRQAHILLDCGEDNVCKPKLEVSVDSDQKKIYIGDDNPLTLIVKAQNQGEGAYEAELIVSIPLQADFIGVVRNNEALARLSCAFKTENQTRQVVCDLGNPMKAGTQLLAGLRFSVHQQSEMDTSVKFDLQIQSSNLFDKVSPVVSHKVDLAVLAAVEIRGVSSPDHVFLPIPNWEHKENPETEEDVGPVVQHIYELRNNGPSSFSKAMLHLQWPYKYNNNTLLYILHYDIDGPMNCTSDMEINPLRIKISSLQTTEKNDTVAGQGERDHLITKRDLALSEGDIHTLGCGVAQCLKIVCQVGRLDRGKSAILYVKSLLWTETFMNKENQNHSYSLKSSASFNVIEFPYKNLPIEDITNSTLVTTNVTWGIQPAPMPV
T1 sequence (P18084 24-719 limits assumed, chain 2 of 2): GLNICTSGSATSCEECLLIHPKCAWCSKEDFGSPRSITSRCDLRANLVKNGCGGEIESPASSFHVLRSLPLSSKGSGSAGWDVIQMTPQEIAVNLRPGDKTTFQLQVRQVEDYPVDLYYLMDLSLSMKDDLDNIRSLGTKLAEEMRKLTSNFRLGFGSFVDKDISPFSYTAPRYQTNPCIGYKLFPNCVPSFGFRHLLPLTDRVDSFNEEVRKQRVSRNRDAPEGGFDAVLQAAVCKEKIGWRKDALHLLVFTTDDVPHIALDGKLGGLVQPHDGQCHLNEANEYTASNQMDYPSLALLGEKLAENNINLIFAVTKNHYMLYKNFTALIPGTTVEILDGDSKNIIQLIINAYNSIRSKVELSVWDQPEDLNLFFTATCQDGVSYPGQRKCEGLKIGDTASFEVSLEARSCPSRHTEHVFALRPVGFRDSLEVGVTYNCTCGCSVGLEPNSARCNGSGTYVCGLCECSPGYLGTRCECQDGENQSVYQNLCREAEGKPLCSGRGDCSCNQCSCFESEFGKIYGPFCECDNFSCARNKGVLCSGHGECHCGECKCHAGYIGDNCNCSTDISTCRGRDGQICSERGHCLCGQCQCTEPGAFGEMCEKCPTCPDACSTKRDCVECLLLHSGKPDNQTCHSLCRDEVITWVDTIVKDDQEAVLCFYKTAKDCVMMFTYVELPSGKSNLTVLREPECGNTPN
Method: (§1) However, only for the cyclic peptides 125, 126, and 127, in which the number of lysine residues having an amino group as the immobilizing functional group was zero, the amount of the sample solution to be supplied to the sensor chip was set to 500 μL instead of 20 μL. Further, 70 μL of the mixed aqueous solution of 0.2 M EDC and 0.04 M NHS was added to another flow channel of the same sensor chip without immobilizing the sample, and then blocking treatment and washing treatment were carried out. Hereinafter, the obtained immobilization-treated sensor chip is referred to as an “immobilization-treated sensor chip A”.
(§2) After adding human integrin αvβ5 for 10 minutes at 25° C., which was diluted to 30 nM using a HEPES buffer solution to which magnesium chloride was added to 5 mM, in each flow channel of the immobilization-treated sensor chip A prepared in (1) above, the same HEPES buffer solution (containing 5 mM magnesium chloride) was allowed to flow as a running buffer for 30 minutes, and measurement was carried out with Biacore 3000. Then, a regeneration treatment of removing human integrin αvβ5 was carried out by allowing a 0.5 M EDTA aqueous solution to flow through each flow channel for 10 minutes. Further, the above-described measurement process consisting of adding integrin for 10 minutes, allowing a running buffer to flow for 30 minutes, carrying out measurement with Biacore 3000, and carrying out regeneration treatment with 0.5 M EDTA aqueous solution was carried out in the same manner for 100 nM human integrin αvβ5, 300 nM human integrin αvβ5, and 1,000 nM human integrin αvβ5. Dissociation constant between the cyclic peptide and human integrin αvβ5 was calculated from the difference between the value measured by Biacore 3000 in the flow channel immobilized with the cyclic peptide and the value measured by Biacore 3000 in the flow channel unimmobilized with the cyclic peptide, in a case where each concentration of human integrin αvβ5 was allowed to flow, and the integrin binding property was evaluated according to the following evaluation standards. It is preferable that the evaluation result satisfies the evaluation standard A, B, or C.

Binder	dissociation constant	dissociation constant (KD)
B1	50 to 100 nM	–
KKKG[hCys]AIPRGDNFRA[Dab](COCH2)A (thioether 5-16) [Cyclic peptide 20]	–	50 to 100 nM
KKK[hCys]IPRGDNFRA[Dab](COCH2)A (thioether 4-14) [Cyclic peptide 16]	–	50 to 100 nM
KKK[hCys]IPRGDNYR[Dab](COCH2)A (thioether 4-13) [Cyclic peptide 26]	–	50 to 100 nM
KKK[hCys]IPRGDSFR[Dab](COCH2)A (thioether 4-13) [Cyclic peptide 25]	–	50 to 100 nM
KKK[hCys]DPRGDNFR[Dab](COCH2)A (thioether 4-13) [Cyclic peptide 22]	–	50 to 100 nM
KKK[hCys]IPRGDNF[Dab(acetyl)″]A (thioether 4-12) [Cyclic peptide 10]	–	50 to 100 nM
B2	–	50 to 100 nM
KKK[hCys]AAIPRGDNFR[Dab](COCH2)A (thioether 4-15) [Cyclic peptide 18]	–	50 to 100 nM
B3	50 to 100 nM	–
B4	50 to 100 nM	–
KKK[hCys]IPRGDVF[Dab(acetyl)″] (thioether 4-12) [Cyclic peptide 65]	50 to 100 nM	–
B5	50 to 100 nM	–
KKK[hCys]AIPRGDNFRA[Dab](COCH2)A (thioether 4-15) [Cyclic peptide 17]	–	50 to 100 nM
KKK[hCys]AIPRGDNFR[Dab(acetyl)]A (thioether 4-14) [Cyclic peptide 15]	–	50 to 100 nM
KKKA[hCys]VTRGDVFT[Dab(acetyl)″]A (thioether 5-14) [Cyclic peptide 113]	50 to 100 nM	–
B6	50 to 100 nM	–
KKKG[hCys]LPRGDSFR[Dab](COCH2)A (thioether 5-14) [Cyclic peptide 28]	–	50 to 100 nM
B7	50 to 100 nM	–
B8	50 to 100 nM	–
B9	50 to 100 nM	–
B10	50 to 100 nM	–
B11	50 to 100 nM	–
B12	50 to 100 nM	–
B13	50 to 100 nM	–
B14	50 to 100 nM	–

molecular target: T1, human integrin αvβ5; assay: SPR, Biacore 3000, peptide immobilised; A = KD 50 nM or less
Method: as §1, §2

Binder	dissociation constant	dissociation constant (KD)
B15	≤ 50 nM	–
B16	≤ 50 nM	–
KKKG[hCys]AIPRGDTFRA[Dab(acetyl)″]A (thioether 5-16) [Cyclic peptide 67]	≤ 50 nM	–
B17	≤ 50 nM	–
B18	–	≤ 50 nM
KKKG[hCys]IPRGDTFR[Dab(acetyl)″] (thioether 5-14) [Cyclic peptide 59]	–	≤ 50 nM
KKK[hCys]IPRGDNFR[Dab](COCH2)A (thioether 4-13) [Cyclic peptide 3]	–	≤ 50 nM
KKK[hCys]IPRGDTFR[Dab(acetyl)″]A (thioether 4-13) [Cyclic peptide 57]	–	≤ 50 nM
KKK[hCys]EPRGDNFR[Dab](COCH2)A (thioether 4-13) [Cyclic peptide 23]	–	≤ 50 nM
KKK[hCys]IPRGDNFR[Dab(acetyl)″]D (thioether 4-13) [Cyclic peptide 5]	–	≤ 50 nM
KKK[hCys]VPRGDNFR[Dab](COCH2)A (thioether 4-13) [Cyclic peptide 21]	–	≤ 50 nM
KKK[hCys]YPRGDNFR[Dab](COCH2)A (thioether 4-13) [Cyclic peptide 24]	–	≤ 50 nM
KKK[hCys]IPRGDNFR[Dab](COCH2)G (thioether 4-13) [Cyclic peptide 4]	–	≤ 50 nM
KKK[hCys]IPRGDNFRAA[Dab](COCH2)A (thioether 4-15) [Cyclic peptide 19]	–	≤ 50 nM
KKKA[hCys]IPRGDNYR[Dab](COCH2)D (thioether 5-14) [Cyclic peptide 30]	–	≤ 50 nM
KKKA[hCys]EPRGDNFR[Dab](COCH2)D (thioether 5-14) [Cyclic peptide 34]	–	≤ 50 nM
KKKE[hCys]EPRGDNYR[Dab](COCH2)D (thioether 5-14) [Cyclic peptide 39]	–	≤ 50 nM
KKKA[hCys]LPRGDNYR[Dab](COCH2)D (thioether 5-14) [Cyclic peptide 31]	–	≤ 50 nM
KKKA[hCys]YPRGDNYR[Dab](COCH2)D (thioether 5-14) [Cyclic peptide 32]	–	≤ 50 nM
KKKG[Orn(acetyl)]IPRGDTFRCA (thioether 5-14) [Cyclic peptide 139]	≤ 50 nM	–
KKK[hCys]VPRGDVF[Dab(acetyl)″] (thioether 4-12) [Cyclic peptide 66]	≤ 50 nM	–
B19	≤ 50 nM	–
KKKG[hCys]IPRGDTF[Dab(acetyl)″]A (thioether 5-13) [Cyclic peptide 58]	–	≤ 50 nM
KKKA[Dap(acetyl)]EPRGDNYR[hCys]D (thioether 5-14) [Cyclic peptide 48]	–	≤ 50 nM
